Results on 94 variants are retold here after the supplement of paper PMC10567573.

B1: PLK2 (parent)
chain: YAELGQCSVFPATDAPEQFISQVT
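Note: lentivirally expressed fusions sorted by FACS into six bins by GFP to DsRed ratio, PSI derived from sequencing read proportions per bin multiplied by bin number.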

The data set covers variants of B1. Nature of the data set: protein stability index of a GFP-peptide fusion (GPS, HEK-293T) (PSI 1-6); higher = more stable. The settings on record: c terminus: a fixed tail appended.
Take YAELGQCSVFPATDAPEVFISQVT [Q18V]: the protein stability index was 2.49. With YAELGQCSVFPATDAPEFFISQVT [Q18F] the figure was 2.15; with YAELGQCSVFPATDAPEIFISQVT [Q18I], 2.02. With YAELGQCSVFPATDAPEYFISQVT [Q18Y] the figure was 2.26.

Take YAELGQCSVFPATDAPETFISQVT [Q18T]: the protein stability index amounted to 2.13. The figure for YMELGQCSVFPATDAPEQFISQVT [A2M] is 2.46; for YQELGQCSVFPATDAPEQFISQVT [A2Q] it is 2.79.

For YIELGQCSVFPATDAPEQFISQVT [A2I], the protein stability index was 1.64. With YAELGQCSVFPATDAPEQFISQVD [T24D] the figure was 2.64; with YAELGQCSVFPATDAPEQFISQVR [T24R], 2.14. With YAELGQCSVFPATDAPEQFISQVV [T24V] the figure was 1.9. Turning to YAELGQCSVFPATDAPEQFISQVP [T24P], the protein stability index came to 2.08. Regarding YAELGQCSVFPATDAPEQFISQVK [T24K], the protein stability index amounted to 2.6. With YAELGQCSVFPATDAPEQFISQVF [T24F] the figure was 1.62; with YAELGQCSVFPATDAPEQFISQVC [T24C], 1.31. The figure for YAELGQCSVFPATDAPEQFISQVM [T24M] is 1.73; for YAELGQCSVFPATDAPEQFISQVY [T24Y] it is 2; for YAELGQCSVFPATDAPEQFISQVI [T24I] it is 2.48. With YAELGQCSVFPATDAPEQFIQQVT [S21Q] the figure was 1.89; with YAELGQCSVFPATDAPEQFIEQVT [S21E], 2.75; with YAELGQCSVFPATDAPEQFIAQVT [S21A], 1.64. With YAELGQCSVFPATDAPEQFIMQVT [S21M], the protein stability index was found to be 3.09. For YAELGQCSVFPATDAPEQFINQVT [S21N], the protein stability index was 2.14. YAELGQCSVFPATDAPEQFIVQVT [S21V]: the protein stability index is 1.9. The figure for YAELGQCSVFPATDAPEQFIYQVT [S21Y] is 1.57; for YAELGQCSVFPATDAPEQFIHQVT [S21H] it is 1.8; for YAELGQCSVFPATDAPEQFIKQVT [S21K] it is 2.35. Turning to YAELGQCSVFPATDAPEQFIIQVT [S21I], the protein stability index was 2.64.

For YACLGQCSVFPATDAPEQFISQVT [E3C], the protein stability index was 2.21. As for YAKLGQCSVFPATDAPEQFISQVT [E3K], the protein stability index was 2.17. In the case of YAILGQCSVFPATDAPEQFISQVT [E3I], the protein stability index was found to be 1.63. With YASLGQCSVFPATDAPEQFISQVT [E3S] the figure was 1.82; with YAHLGQCSVFPATDAPEQFISQVT [E3H], 1.93. The figure for YARLGQCSVFPATDAPEQFISQVT [E3R] is 2.09; for YANLGQCSVFPATDAPEQFISQVT [E3N] it is 2.08; for YAVLGQCSVFPATDAPEQFISQVT [E3V] it is 2.31. The figure for YAWLGQCSVFPATDAPEQFISQVT [E3W] is 1.66; for YAELGQCSVFPATDAPLQFISQVT [E17L] it is 2.33; for YAELGQCSVFPATDAPWQFISQVT [E17W] it is 3.35.

Take YAELGQCSVFPATDAPQQFISQVT [E17Q]: the protein stability index is 2.9. With YAELGQCSVFPATDAPNQFISQVT [E17N] the figure was 1.95. The figure for YAELGQCSVFPATDAPHQFISQVT [E17H] is 1.86. The figure for YAELGQCSVFPATDAPAQFISQVT [E17A] is 1.92; for YAELGQCSVFQATDAPEQFISQVT [P11Q] it is 1.91.

On to YAELGQCSVFLATDAPEQFISQVT [P11L], for which the protein stability index is 2.03. The figure for YAELGQCSVFMATDAPEQFISQVT [P11M] is 2.62; for YAELGQCSVFRATDAPEQFISQVT [P11R] it is 2.21; for YAELGQCSVFEATDAPEQFISQVT [P11E] it is 1.33. YAELGQCSVFWATDAPEQFISQVT [P11W]: the protein stability index worked out at 2.82. With YAELGQCSVFDATDAPEQFISQVT [P11D] the figure was 1.64. The figure for YAELGQCSVFPATPAPEQFISQVT [D14P] is 1.88. The figure for YAELGQCSVFPATNAPEQFISQVT [D14N] is 2.13. Consider YAELGQCSVFPATTAPEQFISQVT [D14T], for which the protein stability index stood at 1.94.

Take YAELGQCSVFPATIAPEQFISQVT [D14I]: the protein stability index is 2.02. With YAELGQCSVFPATFAPEQFISQVT [D14F] the figure was 2.04; with YAELGQCSVFPACDAPEQFISQVT [T13C], 1.97; with YAELGQCSVFPANDAPEQFISQVT [T13N], 2.5.

As to YAELGQCSVFPAMDAPEQFISQVT [T13M], the protein stability index is 2.11. The figure for YAELGQCSVFPASDAPEQFISQVT [T13S] is 2.37; for YAELGQCSVFPAKDAPEQFISQVT [T13K] it is 2; for YAELGQCSVFPAPDAPEQFISQVT [T13P] it is 2.17.

Turning to YAELGQCSVFPAQDAPEQFISQVT [T13Q], the protein stability index was 2.57. The figure for YAELGQCSVFPAGDAPEQFISQVT [T13G] is 2.32; for YAELGQCSVFPAFDAPEQFISQVT [T13F] it is 1.33.

With YAELGQCSVFPALDAPEQFISQVT [T13L], the protein stability index came to 1.92.

Take YAELGQCSVFPAADAPEQFISQVT [T13A]: the protein stability index amounted to 2.49.

Take YAELGQCSVFPAEDAPEQFISQVT [T13E]: the protein stability index amounted to 3.45. The figure for YAELGQCSVFPAHDAPEQFISQVT [T13H] is 2.2; for YAELGQCSVFPATDAPEQFISQMT [V23M] it is 2.29. With YAELGQCSVFPATDAPEQFISQWT [V23W] the figure was 2.39; with YAELGQCSVFPATDAPEQFISQQT [V23Q], 2.56. With YAELGQCSVFPATDAPEQFISQLT [V23L] the figure was 1.91; with YAELGQCSVFPATDAPEQFISQRT [V23R], 2.54.

On to YAELGQCSVFPATDAPEQFISQST [V23S], for which the protein stability index amounted to 2.96.

For YAELGQCSVFPATDAPEQFISQDT [V23D], the protein stability index worked out at 3.06. With YAELGQCSVFPATDAPEQFISQCT [V23C] the figure was 2.95.

Consider YAELGQCSVFPATDAPEQFISQKT [V23K], for which the protein stability index was 2.38. With YAELGQCSVFPMTDAPEQFISQVT [A12M], the protein stability index worked out at 1.72. With YAELGQCSVFPSTDAPEQFISQVT [A12S] the figure was 2.1.

Take YAELGQCSVFPVTDAPEQFISQVT [A12V]: the protein stability index stood at 2.1. With YAELGQCSVFPGTDAPEQFISQVT [A12G] the figure was 2.39; with YAELGQCSVFPDTDAPEQFISQVT [A12D], 2.81. The figure for YAELGQCSVFPHTDAPEQFISQVT [A12H] is 1.93; for YAELTQCSVFPATDAPEQFISQVT [G5T] it is 2.28; for YAELYQCSVFPATDAPEQFISQVT [G5Y] it is 2.22.

As for YAELAQCSVFPATDAPEQFISQVT [G5A], the protein stability index stood at 2.14. The figure for YAELRQCSVFPATDAPEQFISQVT [G5R] is 2.02; for YAELMQCSVFPATDAPEQFISQVT [G5M] it is 1.98.

In the case of YAELPQCSVFPATDAPEQFISQVT [G5P], the protein stability index amounted to 2.46. With YAELEQCSVFPATDAPEQFISQVT [G5E] the figure was 3.81; with YAEPGQCSVFPATDAPEQFISQVT [L4P], 3.04; with YAEFGQCSVFPATDAPEQFISQVT [L4F], 2.5. The figure for YAEDGQCSVFPATDAPEQFISQVT [L4D] is 3.96; for YAEKGQCSVFPATDAPEQFISQVT [L4K] it is 2.62.
